Data as given in paper PMC8840716, “Functional Antagonism of WRI1 and TCP20 Modulates GH3.3 Expression to Maintain Auxin Homeostasis in Roots” (Plants, 2022).

Biological target: T1, GST-AtWRI1 (Arabidopsis, UniProt Q6X5Y6 1-430)
T1 construct: Arabidopsis WRINKLED1 (AtWRI1), AT3G54320, full-length, sub-cloned into pET41a-GST; also called WRINKLED1; GST agarose-coupled AtWRI1; source: E. coli BL21 (DE3), purified
T1 sequence (looked up): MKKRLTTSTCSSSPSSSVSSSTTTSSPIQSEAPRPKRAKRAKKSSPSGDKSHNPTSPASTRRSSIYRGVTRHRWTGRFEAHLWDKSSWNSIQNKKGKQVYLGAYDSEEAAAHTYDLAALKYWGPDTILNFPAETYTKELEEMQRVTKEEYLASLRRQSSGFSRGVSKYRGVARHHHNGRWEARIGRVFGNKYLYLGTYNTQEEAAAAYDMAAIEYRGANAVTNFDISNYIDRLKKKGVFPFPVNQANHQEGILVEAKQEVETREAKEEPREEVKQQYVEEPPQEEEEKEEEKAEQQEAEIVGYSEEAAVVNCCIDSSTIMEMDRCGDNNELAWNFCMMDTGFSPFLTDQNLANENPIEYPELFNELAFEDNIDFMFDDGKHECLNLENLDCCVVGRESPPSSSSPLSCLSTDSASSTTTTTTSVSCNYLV
Test: pull-down; purified His-TCP20 incubated with GST beads coupled with purified GST-AtWRI1; 20 mM Tris-HCl pH 7.4, 150 mM NaCl, 1 mM DTT, 0.1 mM EDTA, 0.1% IGEPAL CA-630, 4 °C overnight, 5 washes; immunoblot with anti-His antibody
Settings: both partners purified

B1: His-TCP20 (natural protein)
chain: not shown
notes: Arabidopsis TCP20, AT3G27010, full-length, sub-cloned into pET41a-6xHis; also called His-tagged TCP20; source: E. coli BL21 (DE3), purified
**Q.** Does B1 bind?
**A.** Result: binds
